test system: DYT1 patient plasma derived EVs; test: Plasma-derived EV proteomics (ExoQuick ULTRA, DIA LC/MS/MS), DYT1 vs Healthy Controls; set-up: species or system human; settings: Hs. Plasma EVs (DYT1/WT); significance of genotype difference
Experimental: Data was obtained for extracellular vesicles using previously acquired samples. The ExoQuick® ULTRA EV Isolation System was used to fractionate and enrich EVs from plasma. Isolated plasma EV samples were then submitted to proteomic analysis by the Duke Proteomics and Metabolomics Core Facility (DPMCF). At the DPMCF, quantitative (LC/MS/MS) was performed on 500 ng of each sample, using an EvoSep One UPLC system coupled to a Thermo Orbitrap Astral high-resolution accurate mass tandem mass spectrometer (Thermo). Briefly, the sample was eluted directly from an Evotip which was subjected to a low organic wash and then subjected to an analytical separation using a 1.7 μm EvoSep 150 um ID×15 cm endurance (EveoSep) column running an SPD30 gradient from approximately 5 to 30% acetonitrile with 0.1% formic acid with a column temperature of 50 C. Data collection on the Orbitrap Astral mass spectrometer was performed in a data-independent acquisition (DIA) mode of acquisition with a r=240,000 (@m/z 200) full MS scan from m/z 380-980 with a target AGC value of 4e5 ions. Fixed DIA, windows of 4 m/z from m/z 380 to 980 DIA MS/MS scans were acquired in the Astral with a target AGC value of 5e4 and a max fill time of 6 ms. HCD collision energy setting of 27% was used for all MS2 scans.

Row | Molecule | -LogP
1 | TUBB1 (protein, UniProt Q9H4B7 1-451, looked up) Tubulin beta-1 chain: MREIVHIQIGQCGNQIGAKFWEMIGEEHGIDLAGSDRGASALQLERISVYYNEAYGRKYVPRAVLVDLEPGTMDSIRSSKLGALFQPDSFVHGNSGAGNNWAKGHYTEGAELIENVLEVVRHESESCDCLQGFQIVHSLGGGTGSGMGTLLMNKIREEYPDRIMNSFSVMPSPKVSDTVVEPYNAVLSIHQLIENADACFCIDNEALYDICFRTLKLTTPTYGDLNHLVSLTMSGITTSLRFPGQLNADLRKLAVNMVPFPRLHFFMPGFAPLTAQGSQQYRALSVAELTQQMFDARNTMAACDLRRGRYLTVACIFRGKMSTKEVDQQLLSVQTRNSSCFVEWIPNNVKVAVCDIPPRGLSMAATFIGNNTAIQEIFNRVSEHFSAMFKRKAFVHWYTSEGMDINEFGEAENNIHDLVSEYQQFQDAKAVLEEDEEVTEEAEMEPEDKGH | 2.267
2 | ANO6 (protein, UniProt Q4KMQ2 1-910, looked up) Anoctamin-6: MKKMSRNVLLQMEEEEDDDDGDIVLENLGQTIVPDLGSLESQHDFRTPEFEEFNGKPDSLFFNDGQRRIDFVLVYEDESRKETNKKGTNEKQRRKRQAYESNLICHGLQLEATRSVLDDKLVFVKVHAPWEVLCTYAEIMHIKLPLKPNDLKNRSSAFGTLNWFTKVLSVDESIIKPEQEFFTAPFEKNRMNDFYIVDRDAFFNPATRSRIVYFILSRVKYQVINNVSKFGINRLVNSGIYKAAFPLHDCKFRRQSEDPSCPNERYLLYREWAHPRSIYKKQPLDLIRKYYGEKIGIYFAWLGYYTQMLLLAAVVGVACFLYGYLNQDNCTWSKEVCHPDIGGKIIMCPQCDRLCPFWKLNITCESSKKLCIFDSFGTLVFAVFMGVWVTLFLEFWKRRQAELEYEWDTVELQQEEQARPEYEARCTHVVINEITQEEERIPFTAWGKCIRITLCASAVFFWILLIIASVIGIIVYRLSVFIVFSAKLPKNINGTDPIQKYLTPQTATSITASIISFIIIMILNTIYEKVAIMITNFELPRTQTDYENSLTMKMFLFQFVNYYSSCFYIAFFKGKFVGYPGDPVYWLGKYRNEECDPGGCLLELTTQLTIIMGGKAIWNNIQEVLLPWIMNLIGRFHRVSGSEKITPRWEQDYHLQPMGKLGLFYEYLEMIIQFGFVTLFVASFPLAPLLALVNNILEIRVDAWKLTTQFRRLVPEKAQDIGAWQPIMQGIAILAVVTNAMIIAFTSDMIPRLVYYWSFSVPPYGDHTSYTMEGYINNTLSIFKVADFKNKSKGNPYSDLGNHTTCRYRDFRYPPGHPQEYKHNIYYWHVIAAKLAFIIVMEHVIYSVKFFISYAIPDVSKRTKSKIQREKYLTQKLLHENHLKDMTKNMGVIAERMIEAVDNNLRPKSE | 1.411
3 | RBM3 (protein, UniProt P98179 1-157, looked up) RNA-binding protein 3: MSSEEGKLFVGGLNFNTDEQALEDHFSSFGPISEVVVVKDRETQRSRGFGFITFTNPEHASVAMRAMNGESLDGRQIRVDHAGKSARGTRGGGFGAHGRGRSYSRGGGDQGYGSGRYYDSRPGGYGYGYGRSRDYNGRNQGGYDRYSGGNYRDNYDN | 2.179
4 | SEC31A (protein, UniProt O94979 1-1220, looked up) Protein transport protein …: MKLKEVDRTAMQAWSPAQNHPIYLATGTSAQQLDATFSTNASLEIFELDLSDPSLDMKSCATFSSSHRYHKLIWGPYKMDSKGDVSGVLIAGGENGNIILYDPSKIIAGDKEVVIAQNDKHTGPVRALDVNIFQTNLVASGANESEIYIWDLNNFATPMTPGAKTQPPEDISCIAWNRQVQHILASASPSGRATVWDLRKNEPIIKVSDHSNRMHCSGLAWHPDVATQMVLASEDDRLPVIQMWDLRFASSPLRVLENHARGILAIAWSMADPELLLSCGKDAKILCSNPNTGEVLYELPTNTQWCFDIQWCPRNPAVLSAASFDGRISVYSIMGGSTDGLRQKQVDKLSSSFGNLDPFGTGQPLPPLQIPQQTAQHSIVLPLKKPPKWIRRPVGASFSFGGKLVTFENVRMPSHQGAEQQQQQHHVFISQVVTEKEFLSRSDQLQQAVQSQGFINYCQKKIDASQTEFEKNVWSFLKVNFEDDSRGKYLELLGYRKEDLGKKIALALNKVDGANVALKDSDQVAQSDGEESPAAEEQLLGEHIKEEKEESEFLPSSGGTFNISVSGDIDGLITQALLTGNFESAVDLCLHDNRMADAIILAIAGGQELLARTQKKYFAKSQSKITRLITAVVMKNWKEIVESCDLKNWREALAAVLTYAKPDEFSALCDLLGTRLENEGDSLLQTQACLCYICAGNVEKLVACWTKAQDGSHPLSLQDLIEKVVILRKAVQLTQAMDTSTVGVLLAAKMSQYANLLAAQGSIAAALAFLPDNTNQPNIMQLRDRLCRAQGEPVAGHESPKIPYEKQQLPKGRPGPVAGHHQMPRVQTQQYYPHGENPPPPGFIMHGNVNPNAAGQLPTSPGHMHTQVPPYPQPQPYQPAQPYPFGTGGSAMYRPQQPVAPPTSNAYPNTPYISSASSYTGQSQLYAAQHQASSPTSSPATSFPPPPSSGASFQHGGPGAPPSSSAYALPPGTTGTLPAASELPASQRTGPQNGWNDPPALNRVPKKKKMPENFMPPVPITSPIMNPLGDPQSQMLQQQPSAPVPLSSQSSFPQPHLPGGQPFHGVQQPLGQTGMPPSFSKPNIEGAPGAPIGNTFQHVQSLPTKKITKKPIPDEHLILKTTFEDLIQRCLSSATDPQTKRKLDDASKRLEFLYDKLREQTLSPTITSGLHNIARSIETRNYSEGLTMHTHIVSTSNFSETSAFMPVLKVVLTQANKLGV | 1.85
5 | PITPNB (protein, UniProt P48739 1-271, looked up) Phosphatidylinositol transfer …: MVLIKEFRVVLPCSVQEYQVGQLYSVAEASKNETGGGEGIEVLKNEPYEKDGEKGQYTHKIYHLKSKVPAFVRMIAPEGSLVFHEKAWNAYPYCRTIVTNEYMKDDFFIKIETWHKPDLGTLENVHGLDPNTWKTVEIVHIDIADRSQVEPADYKADEDPALFQSVKTKRGPLGPNWKKELANSPDCPQMCAYKLVTIKFKWWGLQSKVENFIQKQEKRIFTNFHRQLFCWIDKWIDLTMEDIRRMEDETQKELETMRKRGSVRGTSAADV | 1.575

Reference: patent publication US20260266848A1, “COMPOSITIONS AND METHODS FOR DIAGNOSING AND TREATING DYSTONIA” (Duke University, priority 2023, published 2026)
